B1: TNF 11C (ssRNA)
RNA: GGGAGCUCAGAAUAAACGCUCAAUGAGGCGCGCCACAGGAUGGCCCUCAACCCUUCGACAUGAGGCCCGGAUCCGGC
B2: TNF 4C (ssRNA)
RNA: GGGAGCUCAGAAUAAACGCUCAACUAGGCCCACCGUCCCUUCUAACAACGUCUUCGACAUGAGGCCCGGAUCCGGC
B3: TNF 8A (ssRNA)
RNA: GGGAGCUCAGAAUAAACGCUCAACAGUGGAGGCUGUCCAAACCCACCCACCCCUUCGACAUGAGGCCCGGAUCCGGC
B4: TNF 7C (ssRNA)
RNA: GGGAGCUCAGAAUAAACGCUCAACAGGUGGCACCGCCCUUCCAACACGGUGCGUUCGACAUGAGGCCCGGAUCCGGC
B5: TNF 10C (ssRNA)
RNA: GGGAGCUCAGAAUAAACGCUCAACGCCGAGACCCACCUCAUAACACCGCUACCUUCGACAUGAGGCCCGGAUCCGGC
B6: TNF 3A (ssRNA)
RNA: GGGAGCUCAGAAUAAACGCUCAAGAUCGACGCAUCGAGUCGCCUCAUCGCUCCUUCGACAUGAGGCCCGGAUCCGGC
B7: TNF 12C (ssRNA)
RNA: GGGAGCUCAGAAUAAACGCUCAAGUCCGCAUGAUGCUUCGAACAGCAUACAACUUCGACAUGAGGCCCGGAUCCGGC
B8: TNF 15C (ssRNA)
RNA: GGGAGCUCAGAAUAAACGCUCAACUAGUUCAACCGUCCCUUCUAACAACCGUCUUCGACAUGAGGCCCGGAUCCGGC
B9: TNF 17A (ssRNA)
RNA: GGGAGCUCAGAAUAAACGCUCAAGGUCGAACUAGCGCUGGAGCGUGCGUUGGUUUCGACAUGAGGCCCGGAUCCGGC
B10: TNF 19A (ssRNA)
RNA: GGGAGCUCAGAAUAAACGCUCAAGUCGAUGCGCAGUCCGCCUCAGCUGCACUGUUCGACAUGAGGCCCGGAUCCGGC
B11: TNF 5C (ssRNA)
RNA: GGGAGCUCAGAAUAAACGCUCAACAGUCACGAACGUGCGCCGGAAGAACGCUCUUCGACAUGAGGCCCGGAUCCGGC
B12: TNF 15A (ssRNA)
RNA: GGGAGCUCAGAAUAAACGCUCAACGUCGAUCGCGUGCUGUAGCCUCAGGCACCUUCGACAUGAGGCCCGGAUCCGGC
B13: TNF 21A (ssRNA)
RNA: GGGAGCUCAGAAUAAACGCUCAACGUCUAGGAACUGCGUCGCCUCAACAGCGCUUCGACAUGAGGCCCGGAUCCGGC
B14: TNF 22A (ssRNA)
RNA: GGGAGCUCAGAAUAAACGCUCAAGUCGGAUGGUUUUGCGCGUUUCCCGUUCGACAUGAGGCCCGGAUCCGGC
B15: TNF 27A (ssRNA)
RNA: GGGAGCUCAGAAUAAACGCUCAAGUCGCUCGAUCGUUUCAUGUCCGUUCGACCUUCGACAUGAGGCCCGGAUCCGGC
B16: TNF 17C (ssRNA)
RNA: GGGAGCUCAGAAUAAACGCUCAAGAUCGAAGUUGUCGUCCGCCUCAGCGACUCUUCGACAUGAGGCCCGGAUCCGGC
B17: TNF 16A (ssRNA)
RNA: GGGAGCUCAGAAUAAACGCUCAAGGUGGAAGGCCUUUGAAGCCCGUACAUCUCCUUCGACAUGAGGCCCGGAUCCGGC
B18: TNF 26A (ssRNA)
RNA: GGGAGCUCAGAAUAAACGCUCAACCCUCGUGCGUGCGCUUGGAGCGUGGCGCAUUCGACAUGAGGCCCGGAUCCGGC
B19: TNF 6C (ssRNA)
RNA: GGGAGCUCAGAAUAAACGCUCAAUGUCGCACGUGUCCCGGCCCGCCCUACCCCUUCGACAUGAGGCCCGGAUCCGGC
B20: IL-4 2'NH2-29 (ssRNA)
RNA: GGGAGACAAGAAUAAACGCUCAAGAGCUGGUGAGCCACGUAUACGGCCUUAGGGGCUUGGGCGUUCGACAGGAGGCUCACAACAGGC
modifications: 2'-NH2 all C and U
B21: IL-4 2'F/NH2-18 (ssRNA)
RNA: GGGAGACAAGAAUAAACGCUCAACCGCCUGCGAUAGUUAGACCGUUGAGCUGAGAGCAACACUUUCGACAGGAGGCUCACAACAGGC
modifications: 2'-F all C, 2'-NH2 all U
B22: IL-4 2'F/NH2-28 (ssRNA)
RNA: GGGAGACAAGAAUAAACGCUCAAGAUCCUGCGACGCCAGGGGUGGAUAGGGGGAAGGGAGCGGUUCGACAGGAGGCUCACAACAGGC
modifications: 2'-F all C, 2'-NH2 all U
B23: IL-4 2'F-12 (ssRNA)
RNA: GGGAGACAAGAAUAAACGCUCAAGUCUGACUAUUGGGGCGCCACAAUAUCAACGGCUGUACUUCGACAGGAGGCUCACAACAGGC
modifications: 2'-F all C and U
B24: IL-4 2'F-21 (ssRNA)
RNA: GGGAGACAAGAAUAAACGCUCAAAGGAGCGCCAUGAAGCAAAGGGAGGAUUGUGGUGGAAGGCUUCGACAGGAGGCUCACAACAGGC
modifications: 2'-F all C and U
B25: IL-4 2'F-18 (ssRNA)
RNA: GGGAGACAAGAAUAAACGCUCAAGCUGCCCAAGGAAUUUAACUUGGACCGCGAUCUGGAGUCUUCGACAGGAGGCUCACAACAGGC
modifications: 2'-F all C and U
B26: TNF 9C 2'F (ssRNA)
RNA: GGGAGCUCAGAAUAAACGCUCAAAUGGUGGAGGCCAUCUCAAACCCACGACACUUCGACAUGAGGCCCGGAUCCGGC
modifications: 2'-F all C and U
B27: TNF 4A 2'F (ssRNA)
RNA: GGGAGCUCAGAAUAAACGCUCAACGCACUCGGACGGAAUCUCCGUAGGACACGUUCGACAUGAGGCCCGGAUCCGGC
modifications: 2'-F all C and U
B28: TNF 7C 2'F (ssRNA)
RNA: B4 RNA
modifications: 2'-F all C and U
B29: TNF 3A 2'F (ssRNA)
RNA: B6 RNA
modifications: 2'-F all C and U
B30: TNF 8C 2'F (ssRNA)
RNA: GGGAGCUCAGAAUAAACGCUCAAGUCCACACUUUGCCGAGCGUCCUAGUGUUCGACAUGAGGCCCGGAUCCGGC
modifications: 2'-F all C and U
B31: TNF 25A 2'F (ssRNA)
RNA: B7 RNA with U25G, A33C, U34C, G35C, U38C, G40U, A49G
modifications: 2'-F all C and U
B32: IL-4 2'F/NH2-2 (ssRNA)
RNA: GGGAGACAAGAAUAAACGCUCAAGACGAACGACCAAGGGACGGGUGGGCAAAUAGGGAUGCCGUUCGACAGGAGGCUCACAACAGGC
modifications: 2'-F C, 2'-NH2 U
B33: IL-4 2'F/NH2-43 (ssRNA)
RNA: GGGAGACAAGAAUAAACGCUCAACAACGCUGACCAUGGGAGGAAUGUGGGAAGGGCGCCAGCGUUCGACAGGAGGCUCACAACAGGC
modifications: 2'-F C, 2'-NH2 U
B34: IL-4 2'F/NH2-14 (ssRNA)
RNA: GGGAGACAAGAAUAAACGCUCAACAGCCAAGGGUUGGAUAGGGGGUAGGGAGCCGUAGCAGCGUUCGACAGGAGGCUCACAACAGGC
modifications: 2'-F C, 2'-NH2 U
B35: IL-4 2'F/NH2-16 (ssRNA)
RNA: GGGAGACAAGAAUAAACGCUCAAGGUACGACCAAGGAAUGUGGGUGGAAGAGGGCGCCGUACCUUCGACAGGAGGCUCACAACAGGC
modifications: 2'-F C, 2'-NH2 U
B36: IL-4 2'F/NH2-11 (ssRNA)
RNA: B35 RNA with C55U
modifications: 2'-F C, 2'-NH2 U

Where a chain is given by its changes, count along the chain named. Some results are limits rather than exact numbers.

A word on the Kd: it is the constant that tells how readily two partners part at equilibrium. A lower Kd goes with tighter binding. The term Ki denotes a measure of affinity in units of concentration, obtained from inhibition or displacement. A low value points to a stronger hold on the target.

T2 sequence (P05112 25-153, one chain of several): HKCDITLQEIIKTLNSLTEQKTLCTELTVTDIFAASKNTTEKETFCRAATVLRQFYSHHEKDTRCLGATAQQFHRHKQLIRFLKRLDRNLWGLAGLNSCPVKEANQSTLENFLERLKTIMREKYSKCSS

The target in the first series is T1, TNF-alpha (Homo sapiens, UniProt P01375 P01375:77-233). The series can be described thus: filter; class I. The conditions noted are these: tags: Genzyme or R&D Systems; chain copies: 3 inferred.
T1 sequence (P01375 77-233, one chain of several): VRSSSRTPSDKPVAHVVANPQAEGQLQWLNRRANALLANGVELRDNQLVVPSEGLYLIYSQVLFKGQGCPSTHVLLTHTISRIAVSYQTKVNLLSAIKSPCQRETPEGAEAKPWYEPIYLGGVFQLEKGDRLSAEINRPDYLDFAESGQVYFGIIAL
In turn, B1 yielded a Kd of 140 nM.

Take B2: the Kd was 92 nM.

B3: the equilibrium dissociation constant (Kd) is 785 nM.

Turning to B4, the Kd stood at 297 nM.

With B5, the Kd was determined as 500 nM.

B6 came in with a Kd of 135 nM.

As to B7, the affinity, expressed as Kd, was 690 nM.

Molecule B8 displayed a Kd of 124 nM.

The target of a further series is T1, TNF-alpha. As to the kind of experiment: filter; no value shown, Kd above 1 uM per footnote; DPBS. The conditions noted are these: tags: Genzyme or R&D Systems; chain copies: 3.
B9: the Kd was over 1000 nM.

The molecule B10 displayed a Kd of over 1000 nM.

Molecule B11 came in with a dissociation constant (Kd) of over 1000 nM.

B12 had a Kd of over 1000 nM.

Regarding B13, the Kd is over 1000 nM.

B14 showed a Kd of over 1000 nM.

B15 displayed a Kd of over 1000 nM.

As to B16, the Kd is over 1000 nM.

B17 showed a Kd of over 1000 nM.

As for B18, the dissociation constant (Kd) is over 1000 nM.

B19: the Kd is over 1000 nM.

A further series has as its target T2, IL-4 (Homo sapiens, UniProt P05112 P05112:25-153). The series can be described thus: filter; full-length. The conditions noted are these: tags: R&D Systems.
As for B20, binding was put at a Kd of 8.3 nM.

The molecule B21 had a Kd of 30 nM.

The molecule B22 showed a Kd of 8.7 nM.

In turn, B23 registered a dissociation constant (Kd) of 30 nM.

As for B24, the Kd came to 11 nM.

As for B25, the dissociation constant (Kd) worked out at 43 nM.

In another series the target is T1, TNF-alpha. The series can be described thus: filter; 2'F version. Particulars: tags: Genzyme or R&D Systems; chain copies: 3 inferred.
As to B26, the Kd is 400 nM.

With B27, the affinity, expressed as Kd, was 178 nM.

B28: the affinity, expressed as Kd, was 442 nM.

Regarding B29, the Kd stood at 623 nM.

B30 returned a Kd of 503 nM.

B31 gave a Kd of 445 nM.

The next series has as its target T2, IL-4. The series can be described thus: filter; group 2 stated to bind IL-4. Particulars: tags: R&D Systems.
In the case of B32, the binding result is listed as “binds”.

For B33, the binding result is on record as “binds”.

On to B34, for which the binding result was “binds”.

For B35, the binding result is “binds”.

As to B36, the binding result was “binds”.

The target in another series is T1, TNF-alpha. The series can be described thus: competition; U937 cells. Particulars: tags: Genzyme or R&D Systems; chain copies: 3 inferred. Here is the method:
A receptor binding competition assay was used to determine the bioactivity of the RNA ligands. ^125I labelled hTNFα at 0.1 nM was incubated in 50 µl of binding medium (PBS with 0.5 mM Mg^++, 0.2% BSA, 0.02% sodium azide, 1 U/µl RNasin) for 15 min at 4° C. with serially diluted competitors at 10^-4 to 10^-11 M, and 1×10^4/µl U937 cells. Duplicate aliquots were subsequently removed, centrifuged through 2:1 dibutyl-phthalate:dinonyl-phthalate mixture to separate free and bound ^125I labelled hTNFα, and the radioactivity in the pellet was measured on a gamma counter. Nonspecific binding was determined by inclusion of a 200-fold molar excess of unlabeled TNF.
B2: the Ki was determined as 1200 nM.

These data come from US5972599, “High affinity nucleic acid ligands of cytokines” (NeXstar Pharmaceuticals, Inc.).
